In publication PMC3507621 one finds response and screen value data, which are given here for four variants.

To fix the notation:
B1: wild type recombinant N-terminal region of PTX3 (N_PTX3) [human] / mouse TSG-6 (tumor necrosis factor-induced protein 6) [mouse] (parent)
chain 1: WGFKNGIFHNSIWLEQAAGVYHREARAGRYKLTYAEAKAVCEFEGGRLATYKQLEAARKIGFHVCAAGWMAKGRVGYPIVKPGPNCGFGKTGIIDYGIRLNRSERWDAYCYNPHAKECGGVFTDPKRIFKSPGFPNEYDDNQVCYWHIRLKYGQRIHLSFLDFDLEHDPGCLADYVEIYDSYDDVHGFVGRYCGDELPEDIISTGNVMTLKFLSDASVTAGGFQIKYVTVDPASKSSQAKNTSTTGNKKFLPGRFSHL
chain 2: ENSDDYDLMYVNLDNEIDNGLHPTEDPTPCACGQEHSEWDKLFIMLENSQMRERMLLQATDDVLRGELQRLREELGRLAESLARPCAPGAPAEARLTSALDELLQATRDAGRRLARMEGAEAQRPEEAGRALAAVLEELRQTRADLHAVQGWATG
B2: wild type recombinant N-terminal region of PTX3 (N_PTX3) [human] / mouse TSG-6 (tumor necrosis factor-induced protein 6) [mouse] (parent)
chain 1: B1 chain 2
chain 2: B1 chain 1

In assay [1] the parent is B1. Put plainly: ELISA. Conditions: with mouse TSG-6 (tumor necrosis factor-induced protein 6) [mouse], pH 7.4, PBS with Ca2+ and Mg2+, read off a plot. Background: ELISA stands for enzyme-linked immunosorbent assay.
Assay [2] covers variants of B2. Put plainly: competition ELISA (bPTX3 detected with HRP-conjugated streptavidin). Conditions: with mouse TSG-6 (tumor necrosis factor-induced protein 6) [mouse], wells coated with TSG-6, read off a plot.
[3] abbreviates: TSG-6 about 0.38 nM (est. from x axis), parent: 0.29.
Where [4] appears, read: TSG-6 about 1.6 nM (est. from x axis), parent: 0.91.
[5] abbreviates: TSG-6 about 6.2 nM (est. from x axis), parent: 1.7.
The mark [6] stands for this setting: TSG-6 about 26 nM (est. from x axis), parent: 2.2.
[7] abbreviates: TSG-6 about 100 nM (est. from x axis), parent: 2.3.

Consider chain 2 ENSDDYDLMYVNLDNEIDNGLHPTEDPTPSASGQEHSEWDKLFIMLENSQMRERMLLQATDDVLRGELQRLREELGRLAESLARPCAPGAPAEARLTSALDELLQATRDAGRRLARMEGAEAQRPEEAGRALAAVLEELRQTRADLHAVQGWATG [chain 2 C30S C32S], for which the response in assay [1] (setting [3]) was 0.14 O.D. (450nm); in assay [1] (setting [4]), 0.5 O.D. (450nm); in assay [1] (setting [5]) it was 1.1 O.D. (450nm); in assay [1] (setting [6]) it was 1.9 O.D. (450nm); in assay [1] (setting [7]) it was 2.2 O.D. (450nm).

Regarding chain 2 ENSDDYDLMYVNLDNEIDNGLHPTEDPTPCACGQEHSEWDKLFIMLENSQMRERMLLQATDDVLRGELQRLREELGRLAESLARPSAPGAPAEARLTSALDELLQATRDAGRRLARMEGAEAQRPEEAGRALAAVLEELRQTRADLHAVQGWATG [chain 2 C86S], the response in assay [1] (setting [3]) is 0.3 O.D. (450nm); in assay [1] (setting [4]), 0.91 O.D. (450nm); in assay [1] (setting [5]), 1.6 O.D. (450nm); in assay [1] (setting [6]) it was 2.2 O.D. (450nm); in assay [1] (setting [7]) it was 2.3 O.D. (450nm).

On to chain 2 ENSDDYDLMYVNLDNEIDNGLHPTEDPTPSASGQEHSEWDKLFIMLENSQMRERMLLQATDDVLRGELQRLREELGRLAESLARPSAPGAPAEARLTSALDELLQATRDAGRRLARMEGAEAQRPEEAGRALAAVLEELRQTRADLHAVQGWATG [chain 2 C30S C32S C86S], for which the response in assay [1] (setting [3]) was 0.31 O.D. (450nm); in assay [1] (setting [4]), 0.91 O.D. (450nm); in assay [1] (setting [5]) it was 1.7 O.D. (450nm); in assay [1] (setting [6]), 2.2 O.D. (450nm); in assay [1] (setting [7]), 2.2 O.D. (450nm).

As for chain 1 ENSDDYDLMYVNLDNEIDNGLHPTEDPTPSASGQEHSEWDKLFIMLENSQMRERMLLQATDDVLRGELQRLREELGRLAESLARPSAPGAPAEARLTSALDELLQATRDAGRRLARMEGAEAQRPEEAGRALAAVLEELRQTRADLHAVQGWATG [chain 1 C30S C32S C86S], the screen value in assay [2] (competitor about 0.24 nM (est. from x axis), parent: 99) was 97%; in assay [2] (competitor about 1.2 nM (est. from x axis), parent: 90), 93%; in assay [2] (competitor about 12 nM (est. from x axis), parent: 82), 84%; in assay [2] (competitor about 120 nM (est. from x axis), parent: 58), 64%; in assay [2] (competitor about 1200 nM (est. from x axis), parent: 17) it was 29%.
